Assay results: patent US11285284B2, “Methods for treatment of pulmonary lung diseases with improved therapeutic efficacy and improved dose efficiency” (PNEUMA RESPIRATORY, INC., priority 2016, dated 2022)
Values joined by “and” are separate entries in the source; they are usually repeats but may differ in a detail not shown here. Identical values can stand only once.

Experiments:
[1] = system: patients with cystic fibrosis; settings: cited from earlier work
[2] = Gel electrophoresis of active agent after droplet generation; format: physicochemical
Excerpt: Gel Electrophoresis: To determine the stability of active agent after droplet generation, the generated stream of droplets including the active agent is collected and the molecular weight of the active agent is verified using gel electrophoresis.

[3] = Insulin stability after aerosol generation, size exclusion chromatography; format: physicochemical
Excerpt: Alternately, to determine the stability of active agent after droplet generation, the generated stream of droplets including the active agent may be collected and SEC-HPLIC may be employed to monitor for any changes in large molecule aggregation and protein fragment content. Soluble protein aggregates and protein fragment content may be calculated by comparing respective peak area under the SEC-HPLC curve of dispensed protein solutions with controls (solutions remaining in the device reservoir).
Drug solutions for testing include Enbrel, (ENBREL® single-use prefilled syringes in 25 mg (0.51 mL of a 50 mg/mL solution of etanercept), and insulin, (Humalog, 200 units/ml, 3 ml kwikpens)
To calculate and compare effects of droplet generation through an ejector mechanism of the disclosure, the total area under the curve of the UV signal at 280 nm versus elution time for controls is compared with the aerosolized samples, which is set to 100%.
Aerosol collection and SEC is performed in a similar fashion as for the Enbrel analysis and aerosol collection.
Fifty microliters of the collected aerosol spray is injected onto the SEC column for analysis, while 50 mcl of the Kwikpen insulin solution is injected onto the SEC column for control samples.

[4] = Gravimetric analysis of delivered dose per actuation; format: physicochemical; settings: for total delivered dose per actuation: from gravimetric mass and solution concentration; for average mass ejected per dose (actuation), gravimetric: solution filled ampule weighed before and after dosing, average of five doses
Procedure: Gravimetric analysis was performed by weighing the Enbrel solution filled ampule before and after dosing. The average of five doses (actuations) were analyzed with an average of 4.25 mg+/−0.15 mg. The total delivered dose of Enbrel per actuation is therefore […] per actuation.
Gravimetric analysis was performed by weighing the Insulin solution filled ampule before and after dosing. The average of five doses (actuations) were analyzed with an average of 5.01 mg+/−0.53 mg. The total delivered dose of Insulin per actuation is therefore 34.8 mcg per actuation.

[5] = Enbrel stability after aerosol generation, size exclusion chromatography; format: physicochemical; settings: for Peak Area %, Peak 1 / Peak Area %, Peak 2 / Peak Area %, Peak 4 / Peak Area %, Peak 5: SEC UV 280 nm
Excerpt: Alternately, to determine the stability of active agent after droplet generation, the generated stream of droplets including the active agent may be collected and […] may be employed to monitor for any changes in large molecule aggregation and protein fragment content. Soluble protein aggregates and protein fragment content may be calculated by comparing respective peak area under the SEC-HPLC curve of dispensed protein solutions with controls (solutions remaining in the device reservoir). Drug solutions for testing include Enbrel, (ENBREL® single-use prefilled syringes in 25 mg (0.51 mL of a 50 mg/mL solution of etanercept), and insulin, (Humalog, 200 units/ml, 3 ml […] is performed with a YarraTM 3 um SEC-2000 LC column 300×7.8 mm, SecurityGuard cartridge kit and SecurityGuard cartridges GFC-2000, 4×3 mm ID. Fifty microliters of Enbrel from the syringe (ENBREL® single-use prefilled syringes in 25 mg/0.51 mL of a 50 mg/mL solution of etanercept) is diluted (4:1) (4 parts, 200 mcl of the mobile phase buffer solution to 1 part, 50 mcl Enbrel from syringe). Fifty microliter of the diluted Enbrel is injected and separation was performed at a flow rate of 1.0 ml/min. The mobile phase buffer system included a PHOS. BUFF. SALINE. […] UV detection is performed at 280 nm. […] An ampule/cartridge is filled with either 0.20 ml of Enbrel® (50 mg/ml) diluted 4:1 (10 mg/ml)(4 parts (200 mcl) of PBS and 0.025% NaN3 and 1 part (50 mcl of Enbrel solution from the syringe). After 20 actuations and aerosolization, about 150 mcl of the aerosolized Enbrel solution is recovered and collected in the polypropylene tube located below the ejector mechanism. The control consists of the diluted Enbrel solution, 50 mcl of which is injected into the SEC column for analysis.

[6] = average of aerosolized S1 and S2
[7] = control, Enbrel diluted 4:1 (10 mg/ml), not aerosolized

In the case of `NC[C@H]1O[C@H](O[C@H]2[C@H](O)[C@@H](O[C@H]3O[C@H](CO)[C@@H](O)[C@H](N)[C@H]3O)[C@H](N)C[C@@H]2N)[C@H](N)C[C@@H]1O` [tobramycin], the “effect on pulmonary function and kidney side effects” value ([1]; administration by inhalation) is given as “significantly improves pulmonary function without severe side effects to kidney functions” and the “toxicity of serum levels” value ([1]; intravenous administration) is given as “toxic to the kidneys”.
For adalimumab, the “change in electrophoretic mobility (molecular weight) of post-aerosol active agent versus control” value (shortened to “change in electrophoretic mobility”) [2] was “negligible change”.
In the case of bevacizumab: antibody (Avastin), the “change in electrophoretic mobility” value [2] was “negligible change”.
With “Insulin: insulin, Humalog, 200 units/ml, 3 ml kwikpens” the “Peak Area %, Peak 3, Avg.” value [3, 6] was 2.4905, the “Peak Area %, Peak 3” value ([3]; control, Kwikpen insulin solution 200 U/ml, not aerosolized) was 0% and the “fraction of the ejected dose forming a fragment” value ([3]; fragment eluting at ~25 minutes) was 2.5%. For the same compound, the “fraction of the ejected dose structurally unchanged” value ([3]; test device, SEC) was 97.5%, the “total delivered dose per actuation” value [4] was 34.8 µg and the “average mass ejected per dose (actuation), gravimetric” value [4] was 5.01 mg.
For Enbrel, the “Peak Area %, Peak 1” value ([5]; aerosolized with test device, 20 actuations, ret time about 5.3 min) was 2.796% and 3.476%, the “Peak Area %, Peak 2” value ([5]; aerosolized with test device, 20 actuations, ret time about 5.8 min) was 90.789% and 92.112% and the “Peak Area %, Peak 4” value ([5]; aerosolized with test device, 20 actuations, ret time about 13 min) was 0.357% and 0.352%. The “Peak Area %, Peak 5” value ([5]; aerosolized with test device, 20 actuations, ret time about 25 min) was 5.130% and 3.428% and 5.123%, the “Peak Area %, Peak 4, Avg.” value [5, 6] was 0.3545 and the “Peak Area %, Peak 5, Avg.” value [5, 6] was 4.2755. The “Peak Area %, Peak 4” value [5, 7] was 0%, the “Peak Area %, Peak 5” value [5, 7] was 0% and the “Peak Area %, Peak 1” value ([5]; control, Enbrel diluted 4:1 (10 mg/ml), not aerosolized, ret time 4.3-5.3 min) was 2.428% and 3.041%. The “Peak Area %, Peak 2” value ([5]; control, Enbrel diluted 4:1 (10 mg/ml), not aerosolized, ret time 4.8-5.8 min) was 96.676% and 95.909%, the “fraction of the dose forming molecular fragments” value ([5]; fragments with elution times of 13 and 25 minutes) was 4.6% and the “fraction structurally unchanged after delivering an aerosol dose” value ([5]; test device, SEC) was 95.4%. For the same compound, the “change in electrophoretic mobility” value [2] was “negligible change”, the “total delivered dose per actuation” value [4] was 42.5 µg and the “average mass ejected per dose (actuation), gravimetric” value [4] was 4.25 mg.
